Results reported in patent publication US20210371461.

System: MePEG2-IEGR (TFA salt)

Row | Substance | luminescence signal (RLU) from substrate cleavage, 52 nM enzyme | Kcat (Vmax/[FXa]) | luminescence signal (RLU) from substrate cleavage, 80 nM enzyme
1 | thrombin | 52 nM thrombin yielded ˜30.000 RLU |  | 
2 | Factor Xa |  | Kcat=Vmax/[FXa]=1.05×10^14 s^-1 | A concentration of 80 nm FXa yielded a signal of 1.000.000 RLU
